IntAct's records for PubMed 22854040

B1: Ras-related protein Rab-8A (Homo sapiens), P61006 (parent)
chain: MAKTYDYLFKLLLIGDSGVGKTCVLFRFSEDAFNSTFISTIGIDFKIRTIELDGKRIKLQIWDTAGQERFRTITTAYYRGAMGIMLVYDITNEKSFDNIRNWIRNIEEHASADVEKMILGNKCDVNDKRQVSKERGEKLALDYGIKFMETSAKANINVENAFFTLARDIKAKMDKKLEGNSPQGSNQGVKITPDQQKRSSFFRCVLL

Variants of: B1
Conditions: with tfr1_human TFRC

T22N was tested. Which “effect of a mutation on the interaction” value did it give?
The value was “decreasing interaction”.
